Positions count from the first letter of the chain named.
T1: T cell receptor alpha/beta on purified primary human T cells (human, UniProt P01848 1-140; P01850 1-176)
T1 construct: whole, on cells; also called human primary T cells
T1 TCR alpha (looked up): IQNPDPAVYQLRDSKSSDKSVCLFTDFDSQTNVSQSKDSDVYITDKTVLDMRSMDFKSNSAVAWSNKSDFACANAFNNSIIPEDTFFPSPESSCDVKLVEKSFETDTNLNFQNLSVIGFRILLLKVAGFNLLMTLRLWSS
T1 TCR beta (looked up): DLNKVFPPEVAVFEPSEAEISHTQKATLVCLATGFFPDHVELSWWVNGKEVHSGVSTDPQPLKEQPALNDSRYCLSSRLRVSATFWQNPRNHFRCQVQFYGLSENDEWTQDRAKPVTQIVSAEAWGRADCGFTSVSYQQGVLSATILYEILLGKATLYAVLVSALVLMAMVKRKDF

T2: CEACAM5 on cells (UniProt P06731 35-685)
T2 construct: whole, on cells; also called CEACAM5 on LS174T and LoVo cells
T2 sequence (looked up): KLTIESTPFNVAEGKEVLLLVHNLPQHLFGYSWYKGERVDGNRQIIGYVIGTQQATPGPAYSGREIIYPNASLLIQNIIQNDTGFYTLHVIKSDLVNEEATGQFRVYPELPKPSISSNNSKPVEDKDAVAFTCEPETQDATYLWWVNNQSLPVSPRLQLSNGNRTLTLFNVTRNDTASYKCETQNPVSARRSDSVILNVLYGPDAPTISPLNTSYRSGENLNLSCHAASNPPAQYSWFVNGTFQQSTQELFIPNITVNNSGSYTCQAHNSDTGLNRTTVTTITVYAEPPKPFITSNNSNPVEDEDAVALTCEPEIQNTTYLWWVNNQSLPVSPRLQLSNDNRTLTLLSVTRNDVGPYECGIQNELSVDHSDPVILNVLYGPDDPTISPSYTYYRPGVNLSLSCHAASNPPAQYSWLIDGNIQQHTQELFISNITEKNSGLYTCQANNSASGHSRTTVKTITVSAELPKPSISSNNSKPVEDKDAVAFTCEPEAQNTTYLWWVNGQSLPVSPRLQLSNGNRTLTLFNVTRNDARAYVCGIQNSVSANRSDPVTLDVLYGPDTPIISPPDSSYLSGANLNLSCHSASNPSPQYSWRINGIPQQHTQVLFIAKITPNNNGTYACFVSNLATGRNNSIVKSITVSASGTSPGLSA

T3: hCEACAM-5 (R&D Systems, #4128-CM) (human, UniProt P06731 35-685)
T3 construct: Bought protein; also called human CEACAM5 protein
T3 sequence (looked up): T2 sequence (looked up)

T4: soluble recombinant cynomolgus TCR alpha/beta-zipper protein (cynomolgus/rhesus monkey)
T4 construct: Made in house in CHOK1SV cells; extracellular domains fused to a zipper protein; also called cynoTCR-zipper protein; not shown: zipper protein (O'Shea et al. 1993)
T4 V domain 1: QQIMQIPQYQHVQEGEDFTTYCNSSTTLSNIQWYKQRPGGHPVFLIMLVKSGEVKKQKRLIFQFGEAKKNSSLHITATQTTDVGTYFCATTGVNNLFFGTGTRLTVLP
T4 V domain 2: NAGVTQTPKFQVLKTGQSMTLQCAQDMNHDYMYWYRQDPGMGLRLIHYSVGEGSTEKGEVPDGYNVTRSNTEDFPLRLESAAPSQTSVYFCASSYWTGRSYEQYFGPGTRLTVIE

B1: EGFR038G07 (VHH)
VHH: EVQLVESGGGLVQAGGSLRLSCAASGRTFSSYVMGWFRQATGKEREFVATIAWDSGSTYYADSVKGRFTISRDNAKNTVHLQMNSLKPEDTAVYYCAASYNVYYNNYYYPISRDEYDYWGQGTLVTVSS
notes: Monovalent Nanobody; also called monovalent anti-EGFR Nanobody; EGFR monovalent Nanobody
B2: NbCEA5 (VHH)
VHH: EVQLVESGGGSVQAGGSLRLSCAASGDTYGSYWMGWFRQAPGKEREGVAAINRGGGYTVYADSVKGRFTISRDTAKNTVYLQMNSLRPDDTADYYCAASGVLGGLHEDWFNYWGQGTLVTVSS
notes: Monovalent Nanobody; also called CEA#1; monovalent anti-CEA Nanobody
B3: T0170055A02 (VHH)
VHH: EVQLVESGGGLVQPGGSLRLSCAASGDVHKINILGWYRQAPAKEREMVAHITIGDATDYADSAKGRFTISRDEAKNMVYLQMNSLKPEDTAVYFCRAYSRIYPYNYWGQGTLVTVSS
notes: Monovalent anti-TCR Nanobody, cluster A; expressed in E. coli as triple Flag, His6-tagged protein; also called T0170PMP055A02; T01700055A02; not shown: C-terminal triple Flag-His6 tag of the E. coli-made monovalent Nanobody
B4: T0170056G05 (VHH)
VHH: B3 VHH with A23V, I33F, A42G, M47K, T52S, A56Q, A74S, Y98F, N105D
notes: Monovalent anti-TCR Nanobody, cluster A; expressed in E. coli as triple Flag, His6-tagged protein; also called T0170PMP056G05; T01700056G05; not shown: C-terminal triple Flag-His6 tag of the E. coli-made monovalent Nanobody

Key:
[1] = target: T1, T cell receptor alpha/beta on purified …; test: flow cytometry on primary human T cells, MeanFI (PE)
[2] = target: T5, EGFR on cells (UniProt P00533 25-1210, limits assumed); test: flow cytometry, LS174T cells; design: Top: unit not given here
T5 construct: whole, on cells; also called HER14 cells (NIH3T3 transfected with EGFR); EGFR on LS174T and LoVo cells

[3] = target: T5, EGFR on cells; test: flow cytometry, HER14 cells
[4] = target: T5, EGFR on cells; test: flow cytometry, LoVo cells; design: Top: unit not given here
[5] = target: T6, hEGFR (Sino Biological, #10001-H08H) (human, UniProt P00533 25-645); test: SPR (Biacore T100), immobilized hEGFR, 1:1 model
T6 construct: extracellular domain; Bought protein; also called hEGFR ECD; human EGFR protein
Description: (§1) Thereto, hEGFR (Sino Biological, #10001-H08H) was immobilized onto a CM5 chip via amine coupling, using EDC and NHS chemistry. Purified Nanobodies were injected for 2 minutes at different concentrations (between 1.37 and 3000 nM) and allowed to dissociate for 15 min at a flow rate of 45 μl/min. In between sample injections, the surfaces were regenerated with 50 mM NaOH. HBS-EP+(Hepes buffer pH7.4) was used as running buffer.
(§2) The kinetic constants were calculated from the sensorgrams using the BIAEvaluation software (1:1 interaction). The affinity constants (KD) were calculated from resulting association and dissociation rate constants kon and koff, and are shown in Table C-29.

[6] = target: T2, CEACAM5 on cells; test: flow cytometry, LS174T cells; design: Top: unit not given here
[7] = target: T5, EGFR on cells; test: flow cytometry on HER14 cells, MeanFI (PE)
[8] = target: T2, CEACAM5 on cells; test: flow cytometry, LoVo cells; design: Top: unit not given here
[9] = target: T3, hCEACAM-5 (R&D Systems, #4128-CM); test: SPR (Biacore T100), immobilized hCEACAM-5, 1:1 model
Description: as §1, with “hCEACAM-5 (R&D Systems, #4128-CM)” for “hEGFR (Sino Biological, #10001-H08H)”, “0.31” for “1.37”, “2000” for “3000”, “10” for “50”, “Glycine pH 1.5.” for “NaOH.”
as §2

[10] = target: T7, human CD3 expressed on HEK293H cells (human, UniProt P04234 22-171; P09693 23-182; P07766 23-207; P20963 22-164); test: flow cytometry, HEK293H human CD3 cells
T7 construct: also called HEK293H human CD3; HEK293H CD3
Description: (§3) Binding of purified monovalent anti-TCR Nanobodies to human TCR(2IAN)/CD3 expressed on HEK293H cells was evaluated and compared with the binding to HEK293H cells transfected with human CD3 in flow cytometry, as outlined in Example 5. Dilution series of anti-TCR Nanobodies starting from 1 μM were applied to the cells. The parental HEK293H cell line was included as TCR/CD3 negative cell line.
Nanobodies clearly bound to human TCR(2IAN)/CD3 expressed on HEK293H but not to the HEK293H cells transfected with human CD3 only, nor to the HEK293H parental cell line. The EC50 values obtained from the dose response curve are depicted in Table C-2.

[11] = target: T1, T cell receptor alpha/beta on purified …; test: flow cytometry, purified primary human T cells
Description: Periplasmic extracts were screened for cell expressed TCR/CD3 binding using human TCR/CD3 transfected CHO-K1 or HEK293H cells and the respective CHO-K1 or HEK293H reference cell line in a mixed cell line setup. To this end, a large batch of the reference cell lines were labelled with 8 μM PKH26 and frozen. 5×10⁴ PKH labelled reference cells were mixed with 5×10⁴ target cells and incubated with periplasmic extracts for 30 min at 4′C, and washed 3 times. […] Samples were washed, resuspended in FACS Buffer (D-PBS from Gibco, with 10% FBS from Sigma and 0.05% sodium azide from Merck) and then analysed via a BD FACSArray. […] In this gate, 20,000 cells were counted during acquisition. Based on PKH26-SSC distribution, the PKH labelled parental population and the human TCR/CD3 unlabelled target population was selected. For these 2 populations the mean APC value was calculated.
Binding of purified monovalent anti-TCR Nanobodies to human TCR(2XN9)/CD3 expressed on CHO-K1 cells and to purified primary human T cells was evaluated in flow cytometry as outlined in Example 4.1.

[12] = target: T7, human CD3 expressed on HEK293H cells; test: flow cytometry on HEK293H human CD3 cells, MCF
Description: as §3

[13] = target: T4, soluble recombinant cynomolgus TCR …; test: BLI (Octet RED384), immobilized cynomolgus TCR-zipper
[14] = target: T4, soluble recombinant cynomolgus TCR …; test: ELISA, coated soluble cynomolgus TCR-zipper
Description: Quality of the TCR α/β zipper proteins was assessed in an ELISA binding assay. Maxisorp 96-well ELISA plates (Nunc) were coated with 2 μg/mL soluble recombinant human TCR α/β (2XN9)-zipper protein or soluble recombinant cynomolgus TCR α/β-zipper protein. After an overnight incubation, plates were washed and blocked with PBS+1% casein for 1 h at room temperature. Next, plates were incubated with serial dilutions of either a functional flag tagged Nanobody or the functional mouse IgG anti-non-human primate/Rat TCRα/β antibody, clone R73 (eBioscience 16-5960) for 1 h at room temperature while shaking, washed again and incubated with mouse anti-flag-HRP (Sigma, #A8592) respectively rabbit anti-mouse-HRP (Dako, # P0260). After 1 h, TMB One Solution (Promega #G7431) was added. The reaction was stopped with 2M H₂SO₄ and the dose dependent binding was determined by measuring the OD at 450 nm using the Tecan sunrise 4 (FIG. 2).
Binding of purified monovalent anti-TCR Nanobodies to soluble recombinant cynomolgus TCR c/3 protein was evaluated in ELISA (as described in Example 1.2) using 2 μg/ml directly coated recombinant soluble cynomolgus TCR-α/β zipper protein.

[15] = target: T4, soluble recombinant cynomolgus TCR …; test: BLI (Octet RED384), immobilized cynomolgus TCR-zipper
Description: Binding affinities were measured using Bio-Layer Interferometry (BLI) on an Octet RED384 instrument (Pall ForteBio Corp.). Recombinant human soluble TCR(2XN9)-zipper protein was covalently immobilized on amine-reactive sensors (ForteBio) via NHS/EDC coupling chemistry. For kinetic analysis, sensors were first dipped into running buffer (10 mM Hepes, 150 mM NaCl, 0.05% p20, pH7.4 from GE Healthcare Life Sciences) to determine baseline setting. […] Affinity constants (KD) were calculated applying a 1:1 interaction model using the ForteBio Data Analysis software.
Binding affinities of the monovalent anti-TCR Nanobodies were measured using Bio-Layer Interferometry (BLI) on an Octet RED384 instrument (Pall ForteBio Corp.) essentially as described in Example 7.1 using cynomolgus TCR α/β zipper.

Row | Binder | binding result [1] | binding result [7] | MCF at 1 µM [10] [MCF] | EC50 [11] [nM] | binding result [12] | fold lower affinity than for soluble recombinant human TCR α/β zipper [13] [fold] | EC50 [14] [nM] | Kd [15] [nM] | koff [15] [s⁻¹] | kon [15] [M⁻¹ s⁻¹] | further results
1 | B1 | no binding (tested: 5e-7 M) | – | – | – | – | – | – | – | – | – | EC50 [2]: 0.93 nM; Top [2]: 32200; EC50 [3]: 1.8 nM; Top [3]: 166000; EC50 [4]: 0.54 nM; Top [4]: 52300; Kd [5]: 0.763 nM; koff [5]: 0.000426 s⁻¹; kon [5]: 558000 M⁻¹ s⁻¹
2 | B2 | no binding (tested: 5e-7 M) | no binding (tested: 5e-7 M) | – | – | – | – | – | – | – | – | EC50 [6]: 0.59 nM; Top [6]: 43000; EC50 [8]: 1.2 nM; Top [8]: 11200; Kd [9]: 0.51 nM; koff [9]: 0.00051 s⁻¹; kon [9]: 990000 M⁻¹ s⁻¹
3 | B3 | – | – | 1190 | 91 | no binding (tested: 1e-6 M) | 10 | 160 | 210 | 0.024 | 110000 | –
4 | B4 | – | no binding (tested: 5e-7 M) | 352 | 91 | no binding (tested: 1e-6 M) | 10 | 77 | 150 | 0.016 | 110000 | –

Source: US20190112392A1 (Ablynx, published 2019)
